Measured values: the supplement of paper PMC7125110
± gives the standard error. Variants at the floor of the assay were thinned out.

B1: glmS ribozyme (parent)
chain: AUAAAAGCGCCAGAACUACAGAAAUGUAGUUGACGAGGAGGAGGUUUAUCGAAUUUUCGGCGGAUGCCUCCAAA

Variants of: B1
Assay: self-cleavage kobs at 10000 uM GlcN6P; higher = faster cleavage; RNA array
Conditions: with glucosamine-6-phosphate
In short: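 The measurements used barcoded ribozyme variants on sequenced MiSeq chips, transcribed in situ by E. coli RNA polymerase and tracked at 37 °C with a hybridised Cy3 probe. Glucosamine-6-phosphate, 40 μM to 10 mM in HEPES/KCl/Mg(OAc)2 buffer, was flowed in while tiles were imaged over ~14 h. Baseline-normalised signals, also normalised to non-cleaving reference variants, gave per-tile medians that were fit to one- or two-exponential decays for kobs. kcat and KM resulted from weighted Michaelis–Menten fits across concentrations.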

Compared with AUAAAAGCGCCAGAACUACAGAAAUGUAGUUGACGAGGAGGAGGUUAAUCGAUUUUUAGGCGGAUGCCUCCAAA [U47A A53U C58A], AUAAAAGCGCCAGAACUACAGAAAUGUAGUUGACGAGGAGGAGGUUUAUAGAAUUUUCCGCGGAUGCCUUCAAA [C50A G59C C70U] is lower in “self-cleavage kobs at 10000 uM GlcN6P” value: 0.000151 ± 3e-05 s⁻¹ for the first, under 1e-05 s⁻¹ for the second.

AUAAAAGCGCCAGAACUACAGAAAUGUAGUUGACGAGGAGGAGGUUUAACGAAUUUUCGGCGGAGGGCACCAAA [U49A U65G C67G U69A] and AUAAAAGCGCCAGAACUACAGAAAUGUAGUUGACGAGGAGGAGGUUUAUCGUAUGUUCGGCGGUUGCCUCCAAA [A52U U55G A64U] cannot be ordered by “self-cleavage kobs at 10000 uM GlcN6P” value: under 1e-05 s⁻¹ for the first, under 1e-05 s⁻¹ for the second.

Going from AUAAAAGCGCCAGAACUACAGAAAUGUAGUUGACGAGGAGGAGGUUUAUGGACUUUUCGGCGGAUGCCUCAAAA [C50G A53C C71A] to AUAAAAGCGCCAGAACUACAGAAAUGUAGUUGACGAGGAGGAGGUUUAUCGAAUUUGCGGCCGAUGCCUCCAAA [U57G G62C], the “self-cleavage kobs at 10000 uM GlcN6P” value falls from 6.73e-05 ± 2.7e-05 s⁻¹ to under 1e-05 s⁻¹.

AUAAAAGCGCCAGAACUACAGAAAUGUAGUUGACGAGGAGGAGGUUUAUCCAAUUUUCGUCGGAUGCCUCAAAA [G51C G60U C71A] and AUAAAAGCGCCAGAACUACAGAAAUGUAGUUGACGAGGAGGAGGUUUAUCGAAUUUUCAGCGGAUGCGUUCAAA [G59A C68G C70U] cannot be ordered by “self-cleavage kobs at 10000 uM GlcN6P” value: under 1e-05 s⁻¹ for the first, under 1e-05 s⁻¹ for the second.

First: AUAAAAGCGCCAGAACUACAGAAAUGUAGUUGACGAGGAGGAGGGUUAUCGAAUUUGCGGCGGAUGCCUCCAAA [U45G U57G]
Second: AUAAAAGCGCCAGAACUACAGAAAUGUAGUUGACGAGGAGGAGGUUUAGCGAAUUUUCGGGGGAUGCCUCCAAA [U49G C61G]
The “self-cleavage kobs at 10000 uM GlcN6P” value of the first is higher: 3.68e-05 ± 9e-06 s⁻¹ for the first, under 1e-05 s⁻¹ for the second.

First: AUAAAAGCGCCAGAACUACAGAAAUGUAGUUGACGAGGAGGAGGUGUAUCGAAUUUUCGGGGAAUGCCUCCAAA [U46G C61G G63A]
Second: AUAAAAGCGCCAGAACUACAGAAAUGUAGUUGACGAGGAGGAGGUUUAUCGAAUCUACGGCGGAUGCCUCCAAA [U55C U57A]
The “self-cleavage kobs at 10000 uM GlcN6P” value of the first is lower: under 1e-05 s⁻¹ for the first, 0.00024 ± 4.6e-05 s⁻¹ for the second.

First: AUAAAAGCGCCAGAACUACAGAAAUGUAGUUGACGAGGAGGAGGUUUUUCGGAUAUUCGGCGGGUGCCUCCAAA [A48U A52G U55A A64G]
Second: AUAAAAGCGCCAGAACUACAGAAAUGUAGUUGACGAGGAGGAGGUUUAUCGACUGUUCGGCGGAUGUCUCCAAA [A53C U55G C67U]
The “self-cleavage kobs at 10000 uM GlcN6P” value of the first is 35-fold lower: 4.66e-05 ± 1.1e-05 s⁻¹ for the first, 0.00164 ± 0.00038 s⁻¹ for the second.

Compared with AUAAAAGCGCCAGAACUACAGAAAUGUAGUUGACGAGGAGGAGGUAUGUCGAAUUUUCGGCGGAUGCCUCCAAA [U46A A48G], AUAAAAGCGCCAGAACUACAGAAAUGUAGUUGACGAGGAGGAGGUUUAUCGAAGUUUCGGAGGAUGCCUCCAAA [U54G C61A] is lower in “self-cleavage kobs at 10000 uM GlcN6P” value: 3.66e-05 ± 1.3e-05 s⁻¹ for the first, under 1e-05 s⁻¹ for the second.

First: AUAAAAGCGCCAGAACUACAGAAAUGUAGUUGACGAGGAGGAGGUUUAUCGAAUUUUCCGCGCAUGCCUACAAA [G59C G63C C70A]
Second: AUAAAAGCGCCAGAACUACAGAAAUGUAGUUGACGAGGAGGAGGUUUAUCGAAAUUUCGGCGGAUGUCUACAAA [U54A C67U C70A]
The “self-cleavage kobs at 10000 uM GlcN6P” value of the first is lower: under 1e-05 s⁻¹ for the first, 4.02e-05 ± 1.6e-05 s⁻¹ for the second.

Going from AUAAAAGCGCCAGAACUACAGAAAUGUAGUUGACGAGGAGGAGGUUUAUCGAGUUUUUGGCGGAUGCCUUCAAA [A53G C58U C70U] to AUAAAAGCGCCAGAACUACAGAAAUGUAGUUGACGAGGAGGAGGUUUAUCGAAUUUCCGGCGGACGCCUCAAAA [U57C U65C C71A], the “self-cleavage kobs at 10000 uM GlcN6P” value falls from 0.000123 ± 2.7e-05 s⁻¹ to under 1e-05 s⁻¹.

AUAAAAGCGCCAGAACUACAGAAAUGUAGUUGACGAGGAGGAGGUUUAUCGAAUUUUCGGCGGAGUCCUACAAA [U65G G66U C70A] and AUAAAAGCGCCAGAACUACAGAAAUGUAGUUGACGAGGAGGAGGUUUAUCGAAAUUUUGGCGGAUGCCUCCAAA [U54A C58U] are within error of each other in “self-cleavage kobs at 10000 uM GlcN6P” value: 6.2e-05 ± 1.7e-05 s⁻¹ for the first, 6.81e-05 ± 1e-05 s⁻¹ for the second.

First: AUAAAAGCGCCAGAACUACAGAAAUGUAGUUGACGAGGAGGAGGUUGAUCGAAUUUUCAGCGGAUGCCUCCAAA [U47G G59A]
Second: AUAAAAGCGCCAGAACUACAGAAAUGUAGUUGACGAGGAGGAGGUUUGUCGAAUUUUUGGCGGUUGCCUCCAAA [A48G C58U A64U]
The “self-cleavage kobs at 10000 uM GlcN6P” value of the first is higher: 3.68e-05 ± 1.3e-05 s⁻¹ for the first, under 1e-05 s⁻¹ for the second.

Going from AUAAAAGCGCCAGAACUACAGAAAUGUAGUUGACGAGGAGGAGGUUUUUCGAAUUUUCUGCGGGUGCCUCCAAA [A48U G59U A64G] to AUAAAAGCGCCAGAACUACAGAAAUGUAGUUGACGAGGAGGAGGUUUAUCGAAUUCUCGGCGGAUACCUCUAAA [U56C G66A C71U], the “self-cleavage kobs at 10000 uM GlcN6P” value rises from under 1e-05 s⁻¹ to 0.000503 ± 0.00011 s⁻¹.

AUAAAAGCGCCAGAACUACAGAAAUGUAGUUGACGAGGAGGAGGUAUAUAGAAUUUUCUGCGGAUGCCUCCAAA [U46A C50A G59U] and AUAAAAGCGCCAGAACUACAGAAAUGUAGUUGACGAGGAGGAGGUUUAUCGAAUUGUCGCCGGAUGCCUCCAAA [U56G G60C] cannot be ordered by “self-cleavage kobs at 10000 uM GlcN6P” value: under 1e-05 s⁻¹ for the first, under 1e-05 s⁻¹ for the second.

AUAAAAGCGCCAGAACUACAGAAAUGUAGUUGACGAGGAGGAGGUUUAUCGAAUAUUUGGCGGACGCCUCCAAA [U55A C58U U65C] and AUAAAAGCGCCAGAACUACAGAAAUGUAGUUGACGAGGAGGAGGUUUACUGAAUUCUCGGCGGAUGCCUCCAAA [U49C C50U U56C] cannot be ordered by “self-cleavage kobs at 10000 uM GlcN6P” value: under 1e-05 s⁻¹ for the first, under 1e-05 s⁻¹ for the second.

AUAAAAGCGCCAGAACUACAGAAAUGUAGUUGACGAGGAGGAGGUUUAUCGAGUUUGCGGCGGAUGGAUCCAAA [A53G U57G C67G C68A] and AUAAAAGCGCCAGAACUACAGAAAUGUAGUUGACGAGGAGGAGGUUUAACGAAUUUUCGGAGGAUGCCUCCAAA [U49A C61A] cannot be ordered by “self-cleavage kobs at 10000 uM GlcN6P” value: under 1e-05 s⁻¹ for the first, under 1e-05 s⁻¹ for the second.

Going from AUAAAAGCGCCAGAACUACAGAAAUGUAGUUGACGAGGAGGAGGUUUAUCGAAUUUUCGGCGGGUCACUCCAAA [A64G G66C C67A] to AUAAAAGCGCCAGAACUACAGAAAUGUAGUUGACGAGGAGGAGGUUUAUCGAAAUUGCGGCGGAUGCCUCCAAA [U54A U57G], the “self-cleavage kobs at 10000 uM GlcN6P” value falls from 0.000252 ± 7.2e-05 s⁻¹ to 5.94e-05 ± 1.1e-05 s⁻¹ (4.2-fold).
